Patent US20200368363A1 (MAGENTA THEERAPEUTICS, published 2020)

Tests used:
[1] = molecular target: human CD2 on cells (MOLT-4 human T lymphoblast cells; primary human T-cells; primary human NK cells) (human) (UniProt P06729); experiment: flow cytometry on MOLT-4 cells, anti-mouse AF488 secondary, 4 C
[2] = molecular target: T1, human CD2 on cells (MOLT-4 human T lymphoblast cells; primary human T-cells; primary human NK cells) (human, UniProt P06729 25-351); experiment: cell-based or functional assay
T1 sequence: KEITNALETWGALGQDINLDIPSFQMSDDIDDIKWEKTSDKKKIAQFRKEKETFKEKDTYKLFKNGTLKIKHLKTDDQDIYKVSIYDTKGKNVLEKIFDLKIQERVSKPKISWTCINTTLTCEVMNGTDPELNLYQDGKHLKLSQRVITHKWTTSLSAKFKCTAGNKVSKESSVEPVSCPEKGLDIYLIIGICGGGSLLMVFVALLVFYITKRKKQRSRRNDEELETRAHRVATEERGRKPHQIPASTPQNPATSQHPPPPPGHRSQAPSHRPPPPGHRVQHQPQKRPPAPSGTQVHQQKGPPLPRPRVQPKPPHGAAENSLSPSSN

TS1/8 (antibody) showed an EC50 [1] of 0.125 nM.

B1: anti-CD2-amanitin ADC (RPA-2.10-AM), interchain, average drug-to-antibody ratio 6 (antibody, V domains shown)
VH: EVKLVESGGGLVKPGGSLKLSCAASGFTFSSYDMSWVRQTPEKRLEWVASISGGGFLYYLDSVKGRFTISRDNARNILYLHMTSLRSEDTAMYYCARSSYGEIMDYWGQGTSVTVSS
VL: DILLTQSPAILSVSPGERVSFSCRASQRIGTSIHWYQQRTTGSPRLLIKYASESISGIPSRFSGSGSGTDFTLSINSVESEDVADYYCQQSHGWPFTFGGGTKLEIER
In the case of B1, the “NK cell viability (CellTiter-Glo), in vitro NK-cell killing assay, IC50” value [2] is reported as 0.0052 nM.
